Consider 6 molecules from article PMC3585263, “A Novel Ion Channel Formed by Interaction of TRPML3 with TRPV5” (PLoS ONE, 2013).

Bounds are passed on as bounds.

The target in assay [1] is TRPML3 (not stated (human or mouse cDNA cloned)) (UniProt Q8R4F0). In words: FRET or BRET; acceptor photobleaching FRET in transiently transfected HEK293 cells; C-terminal CFP and YFP fusions; FRET efficiency from the recovery of CFP fluorescence during YFP photobleaching.
Assay [2] has as its target T1, TRPML3 ( (human or mouse cDNA cloned), UniProt Q8R4F0 1-553).
T1 construct: TRPML3 cation channel; pcDNA3.1 plasmids held full-length mouse TRPML3 (NM_134160) and human TRPML3 (NM_018298); 'full-length' is printed for the mouse cDNA; Stood as CFP fusion and as YFP fusion in the FRET pairs; also called mucolipin 3; source: HEK293, transiently transfected, in cells; not shown: YFP or CFP, C-terminal, kept
T1 sequence (looked up): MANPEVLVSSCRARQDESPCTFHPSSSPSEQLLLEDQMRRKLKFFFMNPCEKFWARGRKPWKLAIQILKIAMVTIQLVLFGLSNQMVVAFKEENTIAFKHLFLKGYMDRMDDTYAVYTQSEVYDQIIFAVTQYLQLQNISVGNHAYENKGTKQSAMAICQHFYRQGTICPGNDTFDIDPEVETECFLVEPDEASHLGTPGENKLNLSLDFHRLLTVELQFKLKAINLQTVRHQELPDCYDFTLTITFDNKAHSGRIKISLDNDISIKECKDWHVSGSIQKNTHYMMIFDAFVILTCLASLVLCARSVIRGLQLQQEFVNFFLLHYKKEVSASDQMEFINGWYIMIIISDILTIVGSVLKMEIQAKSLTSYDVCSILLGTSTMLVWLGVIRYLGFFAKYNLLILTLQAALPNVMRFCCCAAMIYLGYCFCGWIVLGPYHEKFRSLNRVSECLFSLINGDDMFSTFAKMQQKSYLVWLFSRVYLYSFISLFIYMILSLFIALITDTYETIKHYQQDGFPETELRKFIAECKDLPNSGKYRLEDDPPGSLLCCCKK
Described as above. Conditions: partners not purified.

Assay [3] addresses TRPV5 (mouse) (UniProt P69744).
Assay [4] addresses TRPV5 (mouse) (UniProt P69744). The source holds these as a separate data set.

Chain of TRPV5 (mouse) (P69744 whole entry): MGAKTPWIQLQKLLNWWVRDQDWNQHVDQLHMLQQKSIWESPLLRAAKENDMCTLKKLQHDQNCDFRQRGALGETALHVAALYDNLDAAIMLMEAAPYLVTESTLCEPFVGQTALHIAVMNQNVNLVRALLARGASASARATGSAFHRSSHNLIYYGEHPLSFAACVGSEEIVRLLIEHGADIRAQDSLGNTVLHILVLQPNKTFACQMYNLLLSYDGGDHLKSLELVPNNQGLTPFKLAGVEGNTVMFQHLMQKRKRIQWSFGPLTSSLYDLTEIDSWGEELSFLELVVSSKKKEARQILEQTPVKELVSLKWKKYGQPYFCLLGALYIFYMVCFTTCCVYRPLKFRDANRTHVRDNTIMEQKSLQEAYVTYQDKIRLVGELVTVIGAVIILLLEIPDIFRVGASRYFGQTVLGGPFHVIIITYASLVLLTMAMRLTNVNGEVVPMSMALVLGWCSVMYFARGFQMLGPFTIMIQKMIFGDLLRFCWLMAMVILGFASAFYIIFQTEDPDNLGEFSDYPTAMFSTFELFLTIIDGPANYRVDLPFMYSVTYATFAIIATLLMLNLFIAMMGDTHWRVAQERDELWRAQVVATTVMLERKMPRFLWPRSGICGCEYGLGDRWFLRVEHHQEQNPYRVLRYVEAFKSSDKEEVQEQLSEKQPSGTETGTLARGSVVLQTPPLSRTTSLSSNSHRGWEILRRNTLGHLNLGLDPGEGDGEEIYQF

For the molecule YFP alone, in assay [1], the FRET efficiency was < 5%.

B1: TRPV2 (natural protein, UniProt Q9Y5S1 1-764, looked up)
chain: MTSPSSSPVFRLETLDGGQEDGSEADRGKLDFGSGLPPMESQFQGEDRKFAPQIRVNLNYRKGTGASQPDPNRFDRDRLFNAVSRGVPEDLAGLPEYLSKTSKYLTDSEYTEGSTGKTCLMKAVLNLKDGVNACILPLLQIDRDSGNPQPLVNAQCTDDYYRGHSALHIAIEKRSLQCVKLLVENGANVHARACGRFFQKGQGTCFYFGELPLSLAACTKQWDVVSYLLENPHQPASLQATDSQGNTVLHALVMISDNSAENIALVTSMYDGLLQAGARLCPTVQLEDIRNLQDLTPLKLAAKEGKIEIFRHILQREFSGLSHLSRKFTEWCYGPVRVSLYDLASVDSCEENSVLEIIAFHCKSPHRHRMVVLEPLNKLLQAKWDLLIPKFFLNFLCNLIYMFIFTAVAYHQPTLKKQAAPHLKAEVGNSMLLTGHILILLGGIYLLVGQLWYFWRRHVFIWISFIDSYFEILFLFQALLTVVSQVLCFLAIEWYLPLLVSALVLGWLNLLYYTRGFQHTGIYSVMIQKVILRDLLRFLLIYLVFLFGFAVALVSLSQEAWRPEAPTGPNATESVQPMEGQEDEGNGAQYRGILEASLELFKFTIGMGELAFQEQLHFRGMVLLLLLAYVLLTYILLLNMLIALMSETVNSVATDSWSIWKLQKAISVLEMENGYWWCRKKQRAGVMLTVGTKPDGSPDERWCFRVEEVNWASWEQTLPTLCEDPSGAGVPRTLENPVLASPPKEDEDGASEENYVPVQLLQSN
notes: TRPV2 cation channel; construct and species not described; source: HEK293, transiently transfected, in cells; not shown: YFP or CFP, C-terminal, kept
B1: the FRET efficiency in assay [2] was < 5%.

B2: TRPA1 (natural protein, UniProt O75762 1-1119, looked up)
chain: MKRSLRKMWRPGEKKEPQGVVYEDVPDDTEDFKESLKVVFEGSAYGLQNFNKQKKLKRCDDMDTFFLHYAAAEGQIELMEKITRDSSLEVLHEMDDYGNTPLHCAVEKNQIESVKFLLSRGANPNLRNFNMMAPLHIAVQGMNNEVMKVLLEHRTIDVNLEGENGNTAVIIACTTNNSEALQILLKKGAKPCKSNKWGCFPIHQAAFSGSKECMEIILRFGEEHGYSRQLHINFMNNGKATPLHLAVQNGDLEMIKMCLDNGAQIDPVEKGRCTAIHFAATQGATEIVKLMISSYSGSVDIVNTTDGCHETMLHRASLFDHHELADYLISVGADINKIDSEGRSPLILATASASWNIVNLLLSKGAQVDIKDNFGRNFLHLTVQQPYGLKNLRPEFMQMQQIKELVMDEDNDGCTPLHYACRQGGPGSVNNLLGFNVSIHSKSKDKKSPLHFAASYGRINTCQRLLQDISDTRLLNEGDLHGMTPLHLAAKNGHDKVVQLLLKKGALFLSDHNGWTALHHASMGGYTQTMKVILDTNLKCTDRLDEDGNTALHFAAREGHAKAVALLLSHNADIVLNKQQASFLHLALHNKRKEVVLTIIRSKRWDECLKIFSHNSPGNKCPITEMIEYLPECMKVLLDFCMLHSTEDKSCRDYYIEYNFKYLQCPLEFTKKTPTQDVIYEPLTALNAMVQNNRIELLNHPVCKEYLLMKWLAYGFRAHMMNLGSYCLGLIPMTILVVNIKPGMAFNSTGIINETSDHSEILDTTNSYLIKTCMILVFLSSIFGYCKEAGQIFQQKRNYFMDISNVLEWIIYTTGIIFVLPLFVEIPAHLQWQCGAIAVYFYWMNFLLYLQRFENCGIFIVMLEVILKTLLRSTVVFIFLLLAFGLSFYILLNLQDPFSSPLLSIIQTFSMMLGDINYRESFLEPYLRNELAHPVLSFAQLVSFTIFVPIVLMNLLIGLAVGDIAEVQKHASLKRIAMQVELHTSLEKKLPLWFLRKVDQKSTIVYPNKPRSGGMLFHIFCFLFCTGEIRQEIPNADKSLEMEILKQKYRLKDLTFLLEKQHELIKLIIQKMEIISETEDDDSHCSFQDRFKKEQMEQRNSRWNTVLRAVKAKTHHLEP
notes: TRPA1 cation channel; construct and species not described; source: HEK293, transiently transfected, in cells; not shown: YFP or CFP, C-terminal, kept
As for B2, the FRET efficiency in assay [2] was < 5%.

B3: TRPML3 (natural protein)
chain: MANPEVLVSSCRARQDESPCTFHPSSSPSEQLLLEDQMRRKLKFFFMNPCEKFWARGRKPWKLAIQILKIAMVTIQLVLFGLSNQMVVAFKEENTIAFKHLFLKGYMDRMDDTYAVYTQSEVYDQIIFAVTQYLQLQNISVGNHAYENKGTKQSAMAICQHFYRQGTICPGNDTFDIDPEVETECFLVEPDEASHLGTPGENKLNLSLDFHRLLTVELQFKLKAINLQTVRHQELPDCYDFTLTITFDNKAHSGRIKISLDNDISIKECKDWHVSGSIQKNTHYMMIFDAFVILTCLASLVLCARSVIRGLQLQQEFVNFFLLHYKKEVSASDQMEFINGWYIMIIISDILTIVGSVLKMEIQAKSLTSYDVCSILLGTSTMLVWLGVIRYLGFFAKYNLLILTLQAALPNVMRFCCCAAMIYLGYCFCGWIVLGPYHEKFRSLNRVSECLFSLINGDDMFSTFAKMQQKSYLVWLFSRVYLYSFISLFIYMILSLFIALITDTYETIKHYQQDGFPETELRKFIAECKDLPNSGKYRLEDDPPGSLLCCCKK
Take B3: in assay [3], the average open time, single channels of cotransfected HEK293 cells, first type of current, condition 1 came to 0.4 ms; the average open time, single channels of cotransfected HEK293 cells, second type of current, condition 1 worked out at 0.16 ms; the average open time, single channels of cotransfected HEK293 cells, second type of current, condition 2 is 0.17 ms; the mean open time, single channels of cotransfected HEK293 cells, first type of current, condition 2 worked out at 5.98 ms. In assay [3], this molecule had a single channel conductance at −150 mV, outside-out patches of cotransfected HEK293 cells, first type of current, condition 1 of 32.3 pS; a single channel conductance, cotransfected HEK293 cells, first type of current, condition 2 of 33.4 pS; a single channel conductance, cotransfected HEK293 cells, second type of current, condition 1 of 34.6 pS; a single channel conductance, cotransfected HEK293 cells, second type of current, condition 2 of 46.7 pS. In addition, in assay [4], the whole-cell current density of the novel current at −150 mV in standard bath solution (condition 1), HEK293 cells cotransfected with TRPV5 and TRPML3 is -0.129 nA/pF.

B4: TRPC6 (natural protein, UniProt Q9Y210 1-931, looked up)
chain: MSQSPAFGPRRGSSPRGAAGAAARRNESQDYLLMDSELGEDGCPQAPLPCYGYYPCFRGSDNRLAHRRQTVLREKGRRLANRGPAYMFSDRSTSLSIEEERFLDAAEYGNIPVVRKMLEECHSLNVNCVDYMGQNALQLAVANEHLEITELLLKKENLSRVGDALLLAISKGYVRIVEAILSHPAFAEGKRLATSPSQSELQQDDFYAYDEDGTRFSHDVTPIILAAHCQEYEIVHTLLRKGARIERPHDYFCKCNDCNQKQKHDSFSHSRSRINAYKGLASPAYLSLSSEDPVMTALELSNELAVLANIEKEFKNDYKKLSMQCKDFVVGLLDLCRNTEEVEAILNGDVETLQSGDHGRPNLSRLKLAIKYEVKKFVAHPNCQQQLLSIWYENLSGLRQQTMAVKFLVVLAVAIGLPFLALIYWFAPCSKMGKIMRGPFMKFVAHAASFTIFLGLLVMNAADRFEGTKLLPNETSTDNAKQLFRMKTSCFSWMEMLIISWVIGMIWAECKEIWTQGPKEYLFELWNMLDFGMLAIFAASFIARFMAFWHASKAQSIIDANDTLKDLTKVTLGDNVKYYNLARIKWDPSDPQIISEGLYAIAVVLSFSRIAYILPANESFGPLQISLGRTVKDIFKFMVIFIMVFVAFMIGMFNLYSYYIGAKQNEAFTTVEESFKTLFWAIFGLSEVKSVVINYNHKFIENIGYVLYGVYNVTMVIVLLNMLIAMINSSFQEIEDDADVEWKFARAKLWFSYFEEGRTLPVPFNLVPSPKSLFYLLLKLKKWISELFQGHKKGFQEDAEMNKINEEKKLGILGSHEDLSKLSLDKKQVGHNKQPSIRSSEDFHLNSFNNPPRQYQKIMKRLIKRYVLQAQIDKESDEVNEGELKEIKQDISSLRYELLEEKSQNTEDLAELIRELGEKLSMEPNQEETNR
notes: TRPC6 cation channel; construct and species not described; source: HEK293, transiently transfected, in cells; not shown: YFP or CFP, C-terminal, kept
With B4, in assay [2], the FRET efficiency was < 5%.

B5: PKD2 (natural protein, UniProt Q13563 1-968, looked up)
chain: MVNSSRVQPQQPGDAKRPPAPRAPDPGRLMAGCAAVGASLAAPGGLCEQRGLEIEMQRIRQAAARDPPAGAAASPSPPLSSCSRQAWSRDNPGFEAEEEEEEVEGEEGGMVVEMDVEWRPGSRRSAASSAVSSVGARSRGLGGYHGAGHPSGRRRRREDQGPPCPSPVGGGDPLHRHLPLEGQPPRVAWAERLVRGLRGLWGTRLMEESSTNREKYLKSVLRELVTYLLFLIVLCILTYGMMSSNVYYYTRMMSQLFLDTPVSKTEKTNFKTLSSMEDFWKFTEGSLLDGLYWKMQPSNQTEADNRSFIFYENLLLGVPRIRQLRVRNGSCSIPQDLRDEIKECYDVYSVSSEDRAPFGPRNGTAWIYTSEKDLNGSSHWGIIATYSGAGYYLDLSRTREETAAQVASLKKNVWLDRGTRATFIDFSVYNANINLFCVVRLLVEFPATGGVIPSWQFQPLKLIRYVTTFDFFLAACEIIFCFFIFYYVVEEILEIRIHKLHYFRSFWNCLDVVIVVLSVVAIGINIYRTSNVEVLLQFLEDQNTFPNFEHLAYWQIQFNNIAAVTVFFVWIKLFKFINFNRTMSQLSTTMSRCAKDLFGFAIMFFIIFLAYAQLAYLVFGTQVDDFSTFQECIFTQFRIILGDINFAEIEEANRVLGPIYFTTFVFFMFFILLNMFLAIINDTYSEVKSDLAQQKAEMELSDLIRKGYHKALVKLKLKKNTVDDISESLRQGGGKLNFDELRQDLKGKGHTDAEIEAIFTKYDQDGDQELTEHEHQQMRDDLEKEREDLDLDHSSLPRPMSSRSFPRSLDDSEEDDDEDSGHSSRRRGSISSGVSYEEFQVLVRRVDRMEHSIGSIVSKIDAVIVKLEIMERAKLKRREVLGRLLDGVAEDERLGRDSEIHREQMERLVREELERWESDDAASQISHGLGTPVGLNGQPRPRSSRPSSSQSTEGMEGAGGNGSSNVHV
notes: PKD2 (TRPP2) cation channel; construct and species not described; also called TRPP2; source: HEK293, transiently transfected, in cells; not shown: YFP or CFP, C-terminal, kept
B5: the FRET efficiency in assay [2] is < 5%.
